According to the supplement of paper PMC9112550, “Optimization of the antimicrobial peptide Bac7 by deep mutational scanning” (BMC Biology, 2022):

system: Escherichia coli TOP10; test: shrunken log2 fold change of peptide-encoding DNA abundance (4.5 h post-induction vs induction); higher = less antimicrobial activity (less host growth inhibition); details: time post-induction: 4.5 h; library: site-saturation at positions 5, 18, 19, 20
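Also: peptides expressed intracellularly from a pBAD plasmid library in pooled LB shake-flask culture, induced with 0.3% L-arabinose, DNA abundance read by NGS, three biological replicates, DESeq2 with apeglm shrinkage.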

Sequence | shrunken log2 fold change
RRIRPRPPRLPRPRPRPYCTPRP | 0.164
RRIRPRPPRLPRPRPRPYECPRP | 0.0143
RRIRPRPPRLPRPRPRPYFEPRP | -0.633
RRIRPRPPRLPRPRPRPYGDPRP | -0.156
RRIRPRPPRLPRPRPRPYGEPRP | 0.0864
RRIRPRPPRLPRPRPRPYHWPRP | -0.449
RRIRPRPPRLPRPRPRPYHYPRP | -0.84
RRIRPRPPRLPRPRPRPYISPRP | -0.75
RRIRPRPPRLPRPRPRPYKCPRP | -0.0297
RRIRPRPPRLPRPRPRPYKIPRP | -0.227
RRIRPRPPRLPRPRPRPYKWPRP | -0.296
RRIRPRPPRLPRPRPRPYMDPRP | -0.447
RRIRPRPPRLPRPRPRPYMGPRP | -0.659
RRIRPRPPRLPRPRPRPYMIPRP | -0.398
RRIRPRPPRLPRPRPRPYMVPRP | -1.09
RRIRPRPPRLPRPRPRPYNAPRP | -0.608
RRIRPRPPRLPRPRPRPYNEPRP | -0.458
RRIRPRPPRLPRPRPRPYNTPRP | -0.928
RRIRPRPPRLPRPRPRPYPCPRP | -0.134
RRIRPRPPRLPRPRPRPYQVPRP | -0.203
RRIRPRPPRLPRPRPRPYRAPRP | -0.329
RRIRPRPPRLPRPRPRPYREPRP | -0.073
RRIRPRPPRLPRPRPRPYRGPRP | 0.153
RRIRPRPPRLPRPRPRPYTRPRP | -0.853
RRIRPRPPRLPRPRPRPYVDPRP | -0.117

Sequence | shrunken log2 fold change
RRIRPRPPRLPRPRPRPYWNPRP | -0.151
RRIRPRPPRLPRPRPRPYWWPRP | 0.0199
RRIRPRPPRLPRPRPRPYYNPRP | -1.11
RRIRPRPPRLPRPRPRPYYPPRP | -0.439
RRIRPRPPRLPRPRPRPYYVPRP | -1.25
RRIRQRPPRLPRPRPRPACRPRP | -0.0513
RRIRQRPPRLPRPRPRPAFQPRP | 0.0837
RRIRQRPPRLPRPRPRPAGAPRP | 0.666
RRIRQRPPRLPRPRPRPAGVPRP | -0.102
RRIRQRPPRLPRPRPRPAHEPRP | 0.185
RRIRQRPPRLPRPRPRPAHWPRP | 0.261
RRIRQRPPRLPRPRPRPAIFPRP | -0.0662
RRIRQRPPRLPRPRPRPAKFPRP | -0.103
RRIRQRPPRLPRPRPRPAKIPRP | 0.00963
RRIRQRPPRLPRPRPRPALVPRP | 0.297
RRIRQRPPRLPRPRPRPALYPRP | 0.172
RRIRQRPPRLPRPRPRPAMCPRP | 0.171
RRIRQRPPRLPRPRPRPAMIPRP | 0.103
RRIRQRPPRLPRPRPRPANDPRP | -0.103
RRIRQRPPRLPRPRPRPANQPRP | -0.091
RRIRQRPPRLPRPRPRPANSPRP | -0.0568
RRIRQRPPRLPRPRPRPAPFPRP | 0.613
RRIRQRPPRLPRPRPRPAPRPRP | 0.966
RRIRQRPPRLPRPRPRPAQFPRP | 0.237
RRIRQRPPRLPRPRPRPARWPRP | 0.781

Sequence | shrunken log2 fold change
RRIRQRPPRLPRPRPRPASVPRP | 0.253
RRIRQRPPRLPRPRPRPATQPRP | 0.176
RRIRQRPPRLPRPRPRPAYLPRP | 0.0774
RRIRQRPPRLPRPRPRPCAKPRP | 0.0917
RRIRQRPPRLPRPRPRPCCFPRP | 0.0639
RRIRQRPPRLPRPRPRPCCGPRP | 0.0293
RRIRQRPPRLPRPRPRPCCIPRP | -0.159
RRIRQRPPRLPRPRPRPCCLPRP | -0.0936
RRIRQRPPRLPRPRPRPCCRPRP | -0.0851
RRIRQRPPRLPRPRPRPCDNPRP | -0.269
RRIRQRPPRLPRPRPRPCDPPRP | -0.0819
RRIRQRPPRLPRPRPRPCEVPRP | -0.00192
RRIRQRPPRLPRPRPRPCFPPRP | 0.121
RRIRQRPPRLPRPRPRPCGHPRP | 0.0101
RRIRQRPPRLPRPRPRPCGNPRP | 0.0751
RRIRQRPPRLPRPRPRPCIHPRP | -0.734
RRIRQRPPRLPRPRPRPCMYPRP | -0.166
RRIRQRPPRLPRPRPRPCNFPRP | 0.0393
RRIRQRPPRLPRPRPRPCPCPRP | -0.354
RRIRQRPPRLPRPRPRPCQYPRP | -0.00191
RRIRQRPPRLPRPRPRPCRRPRP | 0.00897
RRIRQRPPRLPRPRPRPCSHPRP | 0.0226
RRIRQRPPRLPRPRPRPCSNPRP | -0.174
RRIRQRPPRLPRPRPRPCTKPRP | 0.00259
RRIRQRPPRLPRPRPRPCVMPRP | -0.149

Sequence | shrunken log2 fold change
RRIRQRPPRLPRPRPRPDCYPRP | -0.304
RRIRQRPPRLPRPRPRPDDSPRP | -0.139
RRIRQRPPRLPRPRPRPDFLPRP | -0.338
RRIRQRPPRLPRPRPRPDGSPRP | -0.0176
RRIRQRPPRLPRPRPRPDHMPRP | 0.0119
RRIRQRPPRLPRPRPRPDHPPRP | -0.0816
RRIRQRPPRLPRPRPRPDKIPRP | -0.00225
RRIRQRPPRLPRPRPRPDLGPRP | 0.0039
RRIRQRPPRLPRPRPRPDPEPRP | -0.202
RRIRQRPPRLPRPRPRPDQEPRP | 0.0119
RRIRQRPPRLPRPRPRPDQFPRP | 0.133
RRIRQRPPRLPRPRPRPDRHPRP | -0.182
RRIRQRPPRLPRPRPRPDRYPRP | 0.0513
RRIRQRPPRLPRPRPRPDSLPRP | -0.0756
RRIRQRPPRLPRPRPRPDTEPRP | 0.0371
RRIRQRPPRLPRPRPRPDTMPRP | 0.0515
RRIRQRPPRLPRPRPRPDTSPRP | 0.00601
RRIRQRPPRLPRPRPRPDTWPRP | -0.197
RRIRQRPPRLPRPRPRPDVAPRP | -0.116
RRIRQRPPRLPRPRPRPEARPRP | -0.00982
RRIRQRPPRLPRPRPRPECPPRP | 0.184
RRIRQRPPRLPRPRPRPECQPRP | -0.0746
RRIRQRPPRLPRPRPRPEFNPRP | -0.0823
RRIRQRPPRLPRPRPRPEIQPRP | 0.0108
RRIRQRPPRLPRPRPRPEIRPRP | 0.0114

Sequence | shrunken log2 fold change
RRIRQRPPRLPRPRPRPEMFPRP | -0.118
RRIRQRPPRLPRPRPRPEMTPRP | 0.0231
RRIRQRPPRLPRPRPRPEPQPRP | 0.00762
RRIRQRPPRLPRPRPRPEQAPRP | 0.378
RRIRQRPPRLPRPRPRPEQHPRP | -0.0137
RRIRQRPPRLPRPRPRPERPPRP | 0.223
RRIRQRPPRLPRPRPRPERTPRP | 0.124
RRIRQRPPRLPRPRPRPERYPRP | -0.0565
RRIRQRPPRLPRPRPRPESTPRP | -0.0105
RRIRQRPPRLPRPRPRPETKPRP | 0.0652
RRIRQRPPRLPRPRPRPEVHPRP | 0.038
RRIRQRPPRLPRPRPRPEYIPRP | -0.00306
RRIRQRPPRLPRPRPRPEYVPRP | -0.0886
RRIRQRPPRLPRPRPRPFATPRP | 0.275
RRIRQRPPRLPRPRPRPFCRPRP | -0.0325
RRIRQRPPRLPRPRPRPFDDPRP | -0.275
RRIRQRPPRLPRPRPRPFDWPRP | -0.0369
RRIRQRPPRLPRPRPRPFFEPRP | 0.0893
RRIRQRPPRLPRPRPRPFGEPRP | 0.287
RRIRQRPPRLPRPRPRPFHKPRP | -0.0921
RRIRQRPPRLPRPRPRPFHQPRP | -0.00804
RRIRQRPPRLPRPRPRPFHYPRP | -0.996
RRIRQRPPRLPRPRPRPFIDPRP | -0.0223
RRIRQRPPRLPRPRPRPFIRPRP | -0.00448
RRIRQRPPRLPRPRPRPFKMPRP | -0.217

Sequence | shrunken log2 fold change
RRIRQRPPRLPRPRPRPFKSPRP | -0.00197
RRIRQRPPRLPRPRPRPFLFPRP | -0.288
RRIRQRPPRLPRPRPRPFLYPRP | -0.615
RRIRQRPPRLPRPRPRPFMEPRP | 0.212
RRIRQRPPRLPRPRPRPFNTPRP | -0.29
RRIRQRPPRLPRPRPRPFPNPRP | -0.0586
RRIRQRPPRLPRPRPRPFRIPRP | -0.0135
RRIRQRPPRLPRPRPRPFSMPRP | -0.0842
RRIRQRPPRLPRPRPRPFTKPRP | -0.0312
RRIRQRPPRLPRPRPRPFWGPRP | -0.0312
RRIRQRPPRLPRPRPRPFWKPRP | -0.0968
RRIRQRPPRLPRPRPRPFYAPRP | -0.0278
RRIRQRPPRLPRPRPRPGAFPRP | -0.158
RRIRQRPPRLPRPRPRPGCEPRP | 0.0109
RRIRQRPPRLPRPRPRPGCFPRP | 0.0403
RRIRQRPPRLPRPRPRPGDHPRP | -0.0718
RRIRQRPPRLPRPRPRPGEYPRP | -0.0469
RRIRQRPPRLPRPRPRPGFGPRP | 0.245
RRIRQRPPRLPRPRPRPGGWPRP | 0.45
RRIRQRPPRLPRPRPRPGHPPRP | 0.0393
RRIRQRPPRLPRPRPRPGHSPRP | -0.00616
RRIRQRPPRLPRPRPRPGHVPRP | 0.0119
RRIRQRPPRLPRPRPRPGHWPRP | 0.0453
RRIRQRPPRLPRPRPRPGITPRP | -0.103
RRIRQRPPRLPRPRPRPGLIPRP | -0.118
